Measured values published in patent US20170369545A1 (CENTRE NATIONAL DE LA RECHERCHE SCIENTIFIQUE, published 2017).
Positions count from the first letter of the chain named.

B1: K1K1 variant 2 (long linker variant) (designed binder)
chain: MAIRNCIIGKGRSYKGTVSITKSGIKCQPWSSMIPHEHSFLPSSYRGKDLQENYCRNPRGEEGGPWCFTSNPEVRYEVCDIPQCGGGGSLVPRGSGGGGSCIIGKGRSYKGTVSITKSGIKCQPWSSMIPHEHSFLPSSYRGKDLQENYCRNPRGEEGGPWCFTSNPEVRYEVCDIPQCSEVE
B2: K1K1 variant 3 (GS-linker variant) (designed binder)
chain: MAIRNCIIGKGRSYKGTVSITKSGIKCQPWSSMIPHEHSFLPSSYRGKDLQENYCRNPRGEEGGPWCFTSNPEVRYEVCDIPQCGSGGCIIGKGRSYKGTVSITKSGIKCQPWSSMIPHEHSFLPSSYRGKDLQENYCRNPRGEEGGPWCFTSNPEVRYEVCDIPQCSEVE
B3: HGF/SF-K1K1 (C-terminally tagged K1K1 protein, 6xHis tag) (designed binder)
chain: MAIRNCIIGKGRSYKGTVSITKSGIKCQPWSSMIPHEHSFLPSSYRGKDLQENYCRNPRGEEGGPWCFTSNPEVRYEVCDIPQCSEVECIIGKGRSYKGTVSITKSGIKCQPWSSMIPHEHSFLPSSYRGKDLQENYCRNPRGEEGGPWCFTSNPEVRYEVCDIPQCSEVEHHHHHH
B4: K1K1 variant 1 (tagless variant) (designed binder)
chain: B2 chain with G85S, S86E, G87V, G88E

What was measured:
[1] = biological target: T1, tyrosine kinase receptor MET on HeLa cells (UniProt P08581 25-1390, limits assumed); experiment: cell-based or functional assay
[2] = biological target: T1, tyrosine kinase receptor MET on HeLa …; experiment: cell-based or functional assay; remark: listed apart in the source

T1 sequence (P08581 25-1390 limits assumed): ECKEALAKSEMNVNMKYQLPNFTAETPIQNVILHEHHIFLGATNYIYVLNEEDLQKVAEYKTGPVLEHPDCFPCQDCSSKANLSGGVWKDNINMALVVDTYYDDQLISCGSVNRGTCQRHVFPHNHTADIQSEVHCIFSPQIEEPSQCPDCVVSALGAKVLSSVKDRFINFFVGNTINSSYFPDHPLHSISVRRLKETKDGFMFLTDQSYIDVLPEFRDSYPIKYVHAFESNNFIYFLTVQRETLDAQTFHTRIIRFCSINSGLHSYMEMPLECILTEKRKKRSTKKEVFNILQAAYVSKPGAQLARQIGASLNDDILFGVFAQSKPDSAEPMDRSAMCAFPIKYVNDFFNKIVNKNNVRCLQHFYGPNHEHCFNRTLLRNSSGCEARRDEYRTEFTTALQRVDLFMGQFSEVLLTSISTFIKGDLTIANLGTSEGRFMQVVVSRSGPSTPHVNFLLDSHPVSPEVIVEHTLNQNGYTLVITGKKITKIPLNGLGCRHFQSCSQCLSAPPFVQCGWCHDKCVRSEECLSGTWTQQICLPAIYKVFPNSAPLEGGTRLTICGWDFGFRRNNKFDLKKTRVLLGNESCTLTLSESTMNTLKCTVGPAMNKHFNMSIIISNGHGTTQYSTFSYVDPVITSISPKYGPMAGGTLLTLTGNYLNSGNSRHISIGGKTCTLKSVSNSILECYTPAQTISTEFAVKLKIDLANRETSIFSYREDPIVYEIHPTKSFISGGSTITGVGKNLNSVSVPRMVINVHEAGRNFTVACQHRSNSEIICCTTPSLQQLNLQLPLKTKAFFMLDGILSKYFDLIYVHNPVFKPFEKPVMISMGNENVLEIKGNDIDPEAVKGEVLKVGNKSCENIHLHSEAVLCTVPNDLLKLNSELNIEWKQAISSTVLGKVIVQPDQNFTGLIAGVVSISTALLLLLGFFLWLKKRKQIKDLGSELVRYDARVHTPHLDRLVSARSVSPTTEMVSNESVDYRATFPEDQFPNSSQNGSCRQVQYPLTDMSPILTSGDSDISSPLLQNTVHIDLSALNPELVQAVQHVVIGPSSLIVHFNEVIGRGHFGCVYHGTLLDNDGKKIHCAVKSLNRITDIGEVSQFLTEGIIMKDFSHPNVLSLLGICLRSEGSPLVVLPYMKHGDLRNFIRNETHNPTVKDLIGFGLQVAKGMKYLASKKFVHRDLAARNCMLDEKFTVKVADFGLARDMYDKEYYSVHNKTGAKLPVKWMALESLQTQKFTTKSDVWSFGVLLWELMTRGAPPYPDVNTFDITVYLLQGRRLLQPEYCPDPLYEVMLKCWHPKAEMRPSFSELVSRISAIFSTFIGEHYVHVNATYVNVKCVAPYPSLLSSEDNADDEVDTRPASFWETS

ERK and Akt phosphorylation in HeLa cells (western blot, ALPHAScreen) [1]	MET phosphorylation in HeLa cells (western blot) [1]	agonist activity against NK1 (ERK and Akt phosphorylation in HeLa cells) [1]	EC50 (read off the curve), Akt phosphorylation (P-AKT) [P-AKT] [2]	EC50 (read off the curve), ERK phosphorylation (P-ERK) [P-ERK] [2]	Binder
~100 pM	100 pM	≥ 10 times (against NK1)	–	–	B1
~100 pM	100 pM	≥ 10 times (against NK1)	–	–	B2
~100 pM	100 pM	≥ 10 times (against NK1)	~0.03 nM	~0.03 nM	B3
~100 pM	100 pM	≥ 10 times (against NK1)	–	–	B4
